± gives the standard deviation.
Assay: protein stability index of a GFP-peptide fusion (GPS, HEK-293T) (PSI 1-6); higher = more stable
Conditions: c terminus: a fixed tail appended
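Further: 24-mer peptide tiles fused after GFP, lentivirally expressed, FACS-sorted into six equal bins by GFP/DsRed ratio, decoded by Illumina sequencing, PSI is the read-weighted mean bin number.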

Row | Sequence | protein stability index (treatment: DMSO) | protein stability index (treatment: MLN4924 1 uM, 8 h)
1 | PPPPPPAQTFLFQGQPVVNRPLSL [TRADD] | 3.71 ± 0.4 | 3.99 ± 0.29
2 | APKKELINIKGISEAKADKILAEA [RAD51] | 4.05 ± 0.25 | 4.49 ± 0.46
3 | LIANIVHDGKPSEGSYRIHVLHHG [USP39] | 2.21 ± 0.2 | 2.19 ± 0.25
4 | PEAKVLHTKRLYRAVVEAVHRLDL [SMG5] | 2.19 ± 0.3 | 2.17 ± 0.11
5 | AGSPIRHENAVQGSAVEVQTYQPP [ISL2] | 4.91 ± 0.14 | 5.04 ± 0.19
6 | EEPTERGNLEVGEPQSEPVRVLDM [FBXO34] | 5.34 ± 0.17 | 5.5 ± 0.16
7 | RTMLDFPQHVSSDKEVRAASTEAD [NLN] | 5.55 ± 0.23 | 4.74 ± 1.4
8 | HCLDQVGLFRKSGVKSRIQALRQM [DLC1] | 2.48 ± 0.36 | 2.4 ± 0.25
9 | PFILPDMVGGNAVPQRTAGGDVPE [MYORG] | 4.96 ± 0.24 | 5.09 ± 0.2
10 | SNSLAIAILMKAYQRFRQKSKASF [PTGFR] | 2.1 ± 0.25 | 2.23 ± 0.19
11 | NLLALGTDRKLDDGDDKVFRRAPS [PPFIA4] | 4.51 ± 0.25 | 4.5 ± 0.24
12 | ETYIHLLAMKIKVGSDDLERIEAR [PSD2] | 2.26 ± 0.13 | 2.5 ± 0.44
13 | SGTMGAAKVTGEVLDILTRLPESV [FLOT1] | 3.64 ± 0.38 | 3.71 ± 0.24
14 | SLKLKSSHHSKHKAPSKLGLIISG [DLC1] | 2.66 ± 0.072 | 2.77 ± 0.55
15 | ARCTAGTLHNLSHHREGLLAIFKS [CTNNB1] | 2.48 ± 0.19 | 2.45 ± 0.19
16 | RIDELIESGKEEGMKIDLIDGKGR [KMT5A] | 4.96 ± 0.23 | 4.85 ± 0.33
17 | WEISWPLEQRGTHAVVGVATALAP [SPSB2] | 2.44 ± 0.26 | 2.73 ± 0.36
18 | KEKSSTVPIPTVNQYLYFLFAPTL [SOAT1] | 2.57 ± 1 | 2.17 ± 0.51
19 | SLFKLKPLSNKTATDDTGGKDPRN [PLD5] | 4.44 ± 0.54 | 4.65 ± 0.11
20 | RVQGVLRGRAREREQLQAEASERF [HES6] | 4.39 ± 0.32 | 4.48 ± 0.25
21 | NWFNVTGSDKCVFLKNTEVSSMEC [CD69] | 2.82 ± 0.25 | 2.94 ± 0.26
22 | HMIQGAGSLEKALPIIQSNQVSSN [DLC1] | 4.22 ± 0.23 | 4.27 ± 0.24
23 | LLLCGTISLRVYRKVLQAVHRGDG [RTN2] | 2.66 ± 0.37 | 2.36 ± 0.63

Row | Sequence | protein stability index (treatment: DMSO) | protein stability index (treatment: MLN4924 1 uM, 8 h)
24 | FRCSVCSRQLLPGDEFSLREHELL [ISL2] | 2.39 ± 0.4 | 2.24 ± 0.59
25 | ANRPDPNTPMEETVRAMTHVINQG [KCNAB2] | 4.75 ± 0.13 | 4.78 ± 0.12
26 | EVKGTLEGDVCGVEPPGPGDTVVQ [PBXIP1] | 5.48 ± 0.23 | 5.37 ± 0.11
27 | DPVELRRLNFQTPGMASHPPIPIL [PTPRD] | 2.91 ± 0.19 | 3.04 ± 0.33
28 | PDVTQQLLQKYNMQFLIRSHECKP [PPEF2] | 2.8 ± 0.21 | 2.71 ± 0.25
29 | PVCPTVCPPGGIHQVTVNESLLAP [KRT71] | 4.36 ± 0.082 | 4.16 ± 0.21
30 | EKASWLGEQPQFWSKTQVLDWISY [ELF3] | 2.33 ± 0.3 | 2.16 ± 0.096
31 | RFALRFIRPDPRSRVTDPVGDIVS [FAF2] | 2.49 ± 0.35 | 2.62 ± 0.31
32 | LGVQTGGPGGRRAGEPGHSPADYL [DYRK1B] | 4.34 ± 0.38 | 4.3 ± 0.31
33 | MQHSFPEPGRLYLDLILAILALEL [TMEM192] | 2.62 ± 0.41 | 2.45 ± 0.36
34 | TIQKQLKDHSCKDNIREAFQIYDK [EFHC1] | 3.22 ± 0.13 | 3.13 ± 0.13
35 | RSPSGSLRSARGSRGGTRGWLPSH [RBMY1A1] | 3.95 ± 0.18 | 4.07 ± 0.17
36 | LKCEMNQMSGEPLDKLNFEAINFC [ACSBG2] | 2.92 ± 0.41 | 3.16 ± 0.31
37 | KALSRKSTSFRVYIMAFDIKSEDM [FBXO33] | 2.74 ± 0.54 | 2.6 ± 0.55
38 | FLQRCLESPFSRKLDLWSFLDIPR [NET1] | 2.45 ± 0.47 | 2.1 ± 0.18
39 | RVVSWLVSAEGSHPDPAPFCADNP [DVL3] | 2.35 ± 0.3 | 2.58 ± 0.24
40 | AAWQGHLPIVKLLAKQPGVSVNAQ [RIPK4] | 2.57 ± 0.38 | 3.07 ± 0.61
41 | FFLRGRLDQLLRHVMNPLETLSIT [PRAME] | – | 2.1 ± 0.52
42 | TSFFDSDEDDSTSRFSSSTEQSSA [DVL3] | 5.34 ± 0.085 | 5.25 ± 0.22
43 | TSSQKALMLELKSLQEEPVEGFRI [UBE2R2] | 3.11 ± 0.31 | 3.3 ± 0.24
44 | EYQLYEDIGKGAFSVVRRCVKLCT [CAMK2B] | 2.45 ± 0.26 | 2.25 ± 0.36
45 | NALTLFNLAQDPQCKEWQVLMCGF [TMEM120A] | 2.26 ± 0.38 | 2.06 ± 0.16
46 | SSCCLHICQGIRGLWGTTLTENTA [PKD2L1] | 2.07 ± 0.21 | 1.97 ± 0.24

Row | Sequence | protein stability index (treatment: DMSO) | protein stability index (treatment: MLN4924 1 uM, 8 h)
47 | KRKEEEALKDSLRPKLSEEQQRII [VDR] | 5.09 ± 0.26 | 5.06 ± 0.23
48 | VVHDWLYSYVYQDGLRLLGARARG [SOAT2] | 2.46 ± 0.44 | 2.28 ± 0.25
49 | LSSVECLDYTADEDGVWYSVAPMN [KLHL12] | 3.59 ± 0.19 | 3.74 ± 0.48
50 | IAKYSDGASKAAGVFGFFATIVFA [CMTM3] | 2.86 ± 0.57 | 2.74 ± 0.41
51 | LVQRQMSVIEEDLEEFQLALKHYV [NECAB1] | 2.32 ± 0.36 | 2.6 ± 0.23
52 | AEPAPRAREGGGCGRSEVRPVAPR [SMAD6] | 4.35 ± 0.093 | 4.15 ± 0.4
53 | RELGPEELDELQAAFEEFDTDRDG [CABP4] | 5.63 ± 0.39 | 5.54 ± 0.35
54 | PMQKLQDLVNRTPWKKCCFSGDGE [RBBP5] | 2.84 ± 0.15 | 2.94 ± 0.071
55 | PGEWLELLLEPGSLYILRGSARYD [ALKBH7] | 3.2 ± 0.38 | 3.08 ± 0.51
56 | NEYRKLHPVLHKEEKQHLERLNKE [TRIM43] | 4.9 ± 0.21 | 4.87 ± 0.081
57 | EGSDYINASFIDGYRQQKAYIATQ [PTPRD] | 3.18 ± 0.25 | 3.34 ± 0.23
58 | FRIILGDFDYNAIDNANRILGPAY [PKD2L1] | 2.74 ± 0.55 | 2.62 ± 0.55
59 | HKTAGKRYVYRFVCDLQSLLGYTP [ETS1] | 3.08 ± 1 | 2.66 ± 0.57
60 | FNFVSTPKCSCGQLAAVHLSKSRT [RNF180] | 2.14 ± 0.43 | 2.05 ± 0.26
61 | ENDPEWWKCKNARGQVGLVPKNYV [NCK2] | 3.52 ± 0.16 | 3.54 ± 0.12
62 | LSSTLLSFSTAIGRTCITDLQLTV [MFSD9] | 3.11 ± 0.17 | 3.18 ± 0.39
63 | QVVVLVRDNGDPSLSSTATVLLVL [PCDHGC5] | 3.25 ± 0.44 | 3.17 ± 0.23
64 | GTVFQELNKLYPTHACREYLKNLP [TPH1] | 2.46 ± 0.34 | 2.38 ± 0.26
65 | RRRGPRNKKRGWRRLAQEPLGLEV [NOP53] | 3.65 ± 0.18 | 3.73 ± 0.4
66 | RVGQWVRMENVTVLGEDVIVNDEL [GMPPB] | 4.01 ± 0.066 | 4.07 ± 0.24
67 | KSCQACRLRKCYEVGMVKCGSRRE [ESR2] | 2.35 ± 0.43 | 3.1 ± 0.33
68 | VGTESQGRDWRHLPTITSELSGAP [PXN] | 4.21 ± 0.23 | 4.21 ± 0.2
69 | ERDRDPCGGSGGGGGGGGGGGGCS [LURAP1L] | 5.37 ± 0.35 | 5.4 ± 0.24

Row | Sequence | protein stability index (treatment: DMSO) | protein stability index (treatment: MLN4924 1 uM, 8 h)
70 | QSWNNQAWNSPFYNCGEESLQSCM [NANOGP8] | 2.51 ± 0.18 | 2.48 ± 0.33
71 | RQLMKVVNEMCPNITRIYNIGKSH [CPXM2] | 2.26 ± 0.12 | 2.71 ± 0.56
72 | GPRPPAGELGSIGDHERAIDFSPY [CEBPB] | 4.15 ± 0.25 | 4.28 ± 0.21
73 | IRALLNLHTDVGSVRMRRAEKSVA [NEK8] | 2.42 ± 0.21 | 2.53 ± 0.19
74 | ILLQEIPIRSISLRSCYFSDPDCS [FBXO39] | 2.55 ± 0.54 | 2.91 ± 0.72
75 | SKSNLGWTPLHLACYFGHRQVVQD [OSBPL1A] | 2.62 ± 0.6 | 2.12 ± 0.55
76 | MQVFAKLGTDPTHVMGLYPDLLPT [VPS39] | 2.16 ± 0.27 | 2.35 ± 0.25
77 | HLRIHTGEKPYKCTHCSKSFRQRA [ZNF449] | 2.83 ± 0.43 | 3.11 ± 0.38
78 | YQHFLQDCVDGLFKEVKEKFKGWV [DLC1] | 2.26 ± 0.49 | 2.02 ± 0.11
79 | HAAAVNGDKGALQRLIVGNSALKD [INVS] | 4.29 ± 0.25 | 4.29 ± 0.32
80 | EGGIFTSPNYPSKYPPDRECIYII [NETO1] | 2.76 ± 0.94 | 2.95 ± 0.7
81 | SLKQALKGLSVEFALLADKAAQQG [SNX8] | 2.32 ± 0.18 | 2.52 ± 0.31
82 | CLGLSYDGLLGDNQIMPKTGFLII [MAGEA6] | 3.01 ± 0.6 | 2.49 ± 0.44
83 | QRLPRSAPPGSLVTKVTAVDADAG [PCDHGC5] | 4.76 ± 0.21 | 4.82 ± 0.3
84 | FFGVFQSFVVLLYILDNETNFVVQ [CLPTM1] | 3.19 ± 0.33 | 2.86 ± 0.42
85 | RIKIRQCIGLQNLKLLDELPIAKV [ASB7] | 2.12 ± 0.31 | 2.19 ± 0.49
86 | EAVPEGPDGGGPWLEDEPGRGAQG [ZSWIM9] | 5.45 ± 0.52 | 5.56 ± 0.35
87 | ALPKATILDLSCNKLTTLPSDFCG [LRRC59] | 2.82 ± 0.16 | 3.02 ± 0.28
88 | IMLKNISQDERLDVLLTLKHTVKE [IQUB] | 2.45 ± 0.56 | 2.09 ± 0.34
89 | YAMGITECDNMLMLLSVSQSMSEE [SEPHS2] | 2.16 ± 0.31 | 2.44 ± 0.22
90 | LDLSKPNDLWPTMENLLQATKSHV [DYNC2LI1] | 3.06 ± 0.28 | 3 ± 0.19

Reference: the supplement of paper PMC10567573
